Results on six molecules are retold here after patent US11789019B2 (priority 2014, dated 2023).

Entries after “also recorded” stand apart in the source; their conditions may differ. Where two headings read alike, the source gives them in different places. Where only a bound is given, the exact number is not on record here.

The subject of assay [1] is calnexin peptide #1-specific CD4+ T cells. The format is in vivo, mouse.
Assay [2] concerns B. dermatitidis strain 26199. It counts as in vivo, Blastomyces dermatitidis.
The test system of assay [3] is 1807 cells. The format is cell-based, mouse. The following applies: calnexin peptide #1 13 amino acid sequence of the named species.
Assay [4] deals with recombinant Calnexin (Paracoccidioides brasiliensis Calnexin with C-terminal 6xHis tag, from E. coli) (Paracoccidioides brasiliensis).
Assay [5] relates to 1807 cells. The experiment in a line: In vivo activation and proliferation of adoptively transferred 1807 cells. The following applies: emulsified in complete Freund's adjuvant; CD44, CFSE.
In assay [6] the test system is human CD4+ T cells. The experiment in a line: In vitro stimulation and identification of activated human T cells (PBMC, CD154 enrichment, CD137). It counts as cell-based.
Setting [7] is: 10 μg/ml, CD137 on CD154 enriched CD4+ cells, positive >3-fold over medium alone.

Consider “LVVKNPAAHHAIS (Blastomyces dermatitidis of strains 26199, 18808, Er-3, 14081; Histoplasma capsulatum of strains G186AR, Nam1, H88, H143; Aspergillus sp.1 of strain group.1; Arthroderma; listed as Ajellomyces capsulatus, listed as Ajellomyces dermatitidis, listed as Arthroderma benhamiae) [Peptide #1, synthetic 13 aa peptide, residues 103-115 of B. dermatitidis calnexin]”, for which, in assay [1] (delivery via the i.v. route), the “calnexin-specific T cells vs. number of cells in control mice” value was “more than 20 fold”; the “pool of calnexin-specific T cells in the draining lymph nodes and spleen” value is > 1000 cells. In assay [1] (naïve C57BL/6 mice), the “tetramer positive CD4+ T cells per animal” value worked out at 30. Moreover, the “protection against infection compared to preceding approaches” value in assay [2] (i.v. delivery of calnexin peptide) is reported as “vaccine efficacy was unchanged”.
In the case of “LVLKNEAAHHAIS (listed as Pneumocystis carinii) [Pneumocystis carinii_Rat Form 1]”, the 1807 reactive result in assay [3] (listed as SEQ ID NO: 6) is “not reactive”.
For the molecule “LVMKSRASHYAIS (Candida albicans) [Candida albicans_5314]”, the 1807 reactive entry in assay [3] (listed as SEQ ID NO: 9) is “not reactive”.
Turning to “1807 T-cell receptor (Blastomyces-specific TCR transgenic 1807 CD4+ T cells)”, the activation (CD44) and proliferation (CFSE) of adoptively transferred 1807 cells in vivo in assay [4] was found to be 85%.
In the case of “LVLKSRAKHHAIS (listed as Homo sapiens) [SEQ ID NO: 10, reference compound]”, the 1807 reactive result in assay [3] was “not reactive”.

B1: rCalnexin: recombinant Paracoccidioides brasiliensis Calnexin with C-terminal 6×His tag expressed in E. coli, 63 kD (protein)
chain: MRLNASLASLILSSIALIGNVHAEDEVKEDATSTSSVIEKPTFTPTTLKAPFLEQFTDGWETRWTPSHAKKEDSKSEEDWAYVGTWAVEEPHVFNGMVGDKGLVVKNPAAHHAISAKFPKKIDNKGKTLVVQYEVKLQNSLNCGGAYMKLLQDNKKLHAEEFSNTSPYVIMFGPDKCGVTNKVHFIFKHKNPKTGEYEEKHMKLPPAVRVSKLSTLYTLIVNPDQSFQIRIDGAAVKNGTLLEDFSPAVNPEKEIDDPEDKKPEDWVDEAHIPDPEATKPEDWDEDAPYEIVDTDATQPEDWLVDEPTSIPDPEAQKPEDWDDEEDGDWIPPTIPNPKCSEVSGCGMWEPPMKKNPEYKGKWTAPMIDNPAYKGPWAPRKIANPNYFEDKTPSNFEPMGAIGFEIWTMQNDILFDNIYIGHSVEDAEKLKAETWDLKHPVEVAEEEAARPKDEEKKEGTLSFKEAPVKYIRGKIELFISLALENPVEAVKAVPEVAGGLGALLVTLVLIIVGAVGLGSPSPAPAAKKQAEKGKEKTAEAVSTAADNVKGEAKKRSGKAGE
In the case of B1, the “tetramer-positive cells displaying CCR6 or CXCR3” value in assay [1] (draining lymph nodes after vaccination) is listed as 15-20%. Besides, in assay [1] (mouse, in vivo), the “proportion of CD44+ CD4+ T cells recruited to lung that are tetramer positive” value is “more than doubles”, the “tetramer positive lung cells that produced IL-17” value is “about 50” and the “tetramer-positive cells recruited to the lung that were IL-17 producers” value is given as ~30%. Also, the “transferred 1807 cells activated and proliferating” value in assay [5] is > 85%. Moreover, in assay [6] (setting [7]), the “immune subjects that responded” value is listed as “five of six” and the “non-immune subjects that responded” value is recorded as “One of four”. Also, in assay [6] (immune subjects), the “concentration dependence of CD4+ T cell response” value is on record as “dose-dependent; also recorded: concentration-dependent manner”, the “frequency of activated (CD154) cells compared with Hsp60” value is on record as “similar” and the “response in the presence of polymyxin B (LPS contribution)” value is recorded as “not due to contaminating LPS; also recorded: retained in the presence of polymyxin B”. For the same molecule, in assay [2] (in vivo), the survival entry is listed as “prolonged survival”.
